From patent EP4763858A1 (dated 2026) come the findings set out here.

The test addresses T1, LMP1 (Epstein-Barr virus) peptide on HLA-A*02:01 (human).
T1 peptide: YLLEMLWRL
The test is described as follows: multimer staining.

B1: T cell receptor LMP1-TCR2 (TCR, V domains shown)
Valpha: AQKITQTQPGMFVQEKEAVTLDCTYDTSDPSYGLFWYKQPSSGEMIFLIYQGSYDQQNATEGRYSLNFQKARKSANLVISASQLGDSAMYFCAMREVALNAGGTSYGKLTFGQGTILTVHP
Vbeta: GAVVSQHPSWVICKSGTSVKIECRSLDFQATTMFWYRQFPKQSLMLMATSNEGSKATYEQGVEKDKFLINHASLTLSTLTVTSAHPEDSSFYICSASGAQPDDPQHFGDGTRLSIL
For B1, the binding result is listed as “recognises”.

B2: T cell receptor LMP1-TCR1 (TCR, V domains shown)
Valpha: AQSVSQHNHHVILSEAASLELGCNYSYGGTVNLFWYVQYPGQHLQLLLKYFSGDPLVKGIKGFEAEFIKSKFSFNLRKPSVQWSDTAEYFCALPRWDGGYNKLIFGAGTRLAVHP
Vbeta: DTEVTQTPKHLVMGMTNKKSLKCEQHMGHRAMYWYKQKAKKPPELMFVYSYEKLSINESVPSRFSPECPNSSLLNLHLHALQPEDSALYLCASSQEGTGELFFGEGSRLTVL
In the case of B2, the binding result is “recognises”.
